From paper PMC11588662

What was measured:
[1] = molecular target: CD33 on human AML cells (Kasumi-1, HL-60, MOLM14) (human (endogenous in Kasumi-1, HL-60, MOLM14)) (UniProt P20138); experiment: flow cytometry on cells; MOLM14 GFP^-CD117^midCD33^+ cells stained with 10 nM of either Db-FM or both (10 nM each); fluorescence (MFI)
[2] = molecular target: CD33 on human AML cells (Kasumi-1, HL-60, MOLM14) (human (endogenous in Kasumi-1, HL-60, MOLM14)) (UniProt P20138); experiment: flow cytometry on cells; 50 ug CD117 or CD33 Db-FM injected i.v. into NSG mice engrafted with MOLM14-CD117^highGFP^+Luc^+ cells; femora collected after 1 and 6 h; MFI (APC anti-FITC) interpolated on an ex vivo titration of Db-FM on cells of a control mouse

Sequence of CD33 on human AML cells (Kasumi-1, HL-60, MOLM14) (human (endogenous in Kasumi-1, HL-60, MOLM14)) (P20138 18-364): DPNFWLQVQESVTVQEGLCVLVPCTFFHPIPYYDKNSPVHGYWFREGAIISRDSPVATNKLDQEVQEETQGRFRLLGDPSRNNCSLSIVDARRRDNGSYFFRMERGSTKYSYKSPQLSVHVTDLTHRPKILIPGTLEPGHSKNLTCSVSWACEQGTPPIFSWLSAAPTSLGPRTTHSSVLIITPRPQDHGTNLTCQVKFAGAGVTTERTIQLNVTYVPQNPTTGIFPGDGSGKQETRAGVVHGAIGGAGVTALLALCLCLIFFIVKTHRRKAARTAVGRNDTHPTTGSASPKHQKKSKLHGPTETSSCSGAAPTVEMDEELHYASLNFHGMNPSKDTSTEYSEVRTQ

Substance: CD33 Db-FM (fluorescein-maleimide-labelled anti-CD33 diabody, clone SGN-33)
- MFI [1]: 942
- interpolated on-tumor Db-FM concentration 1 h after injection [2]: 0.99 nM
- interpolated on-tumor Db-FM concentration 6 h after injection [2]: 0.22 nM
